The text below walks through data of article PMC7528018, “Structure of the TFIIIC subcomplex τA provides insights into RNA polymerase III pre-initiation complex formation” (Nature Communications, 2020).

The target in data set [1] is T1, TFIIIC subcomplex τA (τ131, τ95, τ55) (S. cerevisiae, UniProt P33339 1-1025; P32367 1-649; Q12415 1-435).
T1 construct: τ131, subunit of S. cerevisiae TFIIIC subcomplex τA; insect cell codon-optimized gene; τ95, subunit of S. cerevisiae TFIIIC subcomplex τA; τ55, subunit of S. cerevisiae TFIIIC subcomplex τA; No TEV cleavage of the his-tag is described in the purification; also called wt τA; full-length τA; source: Hi5 insect cells, subunits co-expressed by baculovirus, purified (Ni-NTA, heparin, MonoQ, Superose …)
As to the kind of experiment: co-sedimentation; 10–30% glycerol gradient without crosslinker, equimolar τA and Brf1–TBPΔN, 75 mM NaCl at mixing, 100 mM NaCl, 20 mM HEPES pH 7.5, 5 mM DTT in the gradient, 16 h at 150,000 x g; fractions on SDS–PAGE, silver stain; apparent stoichiometry. To be noted: both partners purified.

The target in the next data set is τA Δplug (τ95Δplug) (Saccharomyces cerevisiae, UniProt P33339;P32367;Q12415 1-1025;1-521;1-435). The experiment in a line: EMSA; 1-10 uM protein, 1 uM DNA; much stronger than wt, weaker than Δtail; τA EMSA: 100 mM NaCl, 20 mM HEPES pH 7.5, 5 mM DTT, 1 h on ice, 10% glycerol added before loading; TFIIIC EMSA: 1 h on ice, buffer not restated; 3-8% Tris-acetate gel in 2.5 mM Tris base, 19 mM glycine, 1 mM DTT. The conditions noted are these: protein: recombinant; tags: N-terminal TEV-cleavable His tag on τ95; copies: 1;1;1; label: 6FAM at 3' end of non-template strand. (In general: In EMSA bound probe runs differently from free probe, usually more slowly.)

Another data set addresses τA Δtail (τ95Δtail) (Saccharomyces cerevisiae, UniProt P33339;P32367;Q12415 1-1025;1-592;1-435). The experiment in a line: EMSA; 1-10 uM protein, 1 uM DNA; much stronger than wt and stronger than Δplug; τA EMSA: 100 mM NaCl, 20 mM HEPES pH 7.5, 5 mM DTT, 1 h on ice, 10% glycerol added before loading; TFIIIC EMSA: 1 h on ice, buffer not restated; 3-8% Tris-acetate gel in 2.5 mM Tris base, 19 mM glycine, 1 mM DTT. The conditions noted are these: protein: recombinant; tags: N-terminal TEV-cleavable His tag on τ95; copies: 1;1;1; label: 6FAM at 3' end of non-template strand.

Data set [2] deals with holo-TFIIIC Δtail (τ95Δtail) (Saccharomyces cerevisiae, UniProt P33339;P32367;Q12415;P34111;Q06339;Q12308 1-1025;1-592;1-435;1-1160;1-672;1-588). The experiment in a line: EMSA; 0.5 uM DNA; tail deletion has only a mild effect; τA EMSA: 100 mM NaCl, 20 mM HEPES pH 7.5, 5 mM DTT, 1 h on ice, 10% glycerol added before loading; TFIIIC EMSA: 1 h on ice, buffer not restated; 3-8% Tris-acetate gel in 2.5 mM Tris base, 19 mM glycine, 1 mM DTT. The conditions noted are these: protein: recombinant; tags: N-terminal TEV-cleavable His tag on τ95; C-terminal TEV-cleavable TwinStrep on τ138; copies: 1;1;1;1;1;1; label: 6FAM at 3' end of non-template strand.

τA Δtail (τ95Δtail), sequence (P33339 whole entry, stated change not applied, chain 1 of 3): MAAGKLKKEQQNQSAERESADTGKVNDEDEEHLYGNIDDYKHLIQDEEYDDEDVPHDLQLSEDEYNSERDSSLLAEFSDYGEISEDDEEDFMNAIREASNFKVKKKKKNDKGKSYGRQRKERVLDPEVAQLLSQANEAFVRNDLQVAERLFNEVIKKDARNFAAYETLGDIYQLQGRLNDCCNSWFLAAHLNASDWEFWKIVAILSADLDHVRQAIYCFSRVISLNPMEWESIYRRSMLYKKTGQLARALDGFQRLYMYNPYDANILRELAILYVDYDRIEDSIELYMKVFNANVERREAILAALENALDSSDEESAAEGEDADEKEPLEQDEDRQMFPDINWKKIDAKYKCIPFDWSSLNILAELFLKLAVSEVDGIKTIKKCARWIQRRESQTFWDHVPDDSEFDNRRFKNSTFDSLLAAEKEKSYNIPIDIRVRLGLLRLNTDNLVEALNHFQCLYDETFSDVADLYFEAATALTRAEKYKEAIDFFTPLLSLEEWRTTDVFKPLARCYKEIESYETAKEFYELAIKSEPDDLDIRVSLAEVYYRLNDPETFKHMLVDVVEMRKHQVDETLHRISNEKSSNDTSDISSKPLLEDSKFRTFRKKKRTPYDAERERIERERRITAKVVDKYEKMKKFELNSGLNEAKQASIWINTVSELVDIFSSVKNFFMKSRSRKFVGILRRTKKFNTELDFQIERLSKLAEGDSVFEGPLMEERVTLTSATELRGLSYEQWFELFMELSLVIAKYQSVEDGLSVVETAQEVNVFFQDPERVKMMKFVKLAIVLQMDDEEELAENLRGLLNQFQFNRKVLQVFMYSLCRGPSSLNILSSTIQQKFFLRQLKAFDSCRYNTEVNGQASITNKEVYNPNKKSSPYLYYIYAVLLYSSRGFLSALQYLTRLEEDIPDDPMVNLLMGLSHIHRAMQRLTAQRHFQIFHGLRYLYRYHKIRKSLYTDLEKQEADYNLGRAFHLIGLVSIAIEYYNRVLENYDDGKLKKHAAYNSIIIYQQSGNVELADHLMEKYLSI
τA Δtail (τ95Δtail), sequence (P32367 1-592, stated change not applied, chain 2 of 3): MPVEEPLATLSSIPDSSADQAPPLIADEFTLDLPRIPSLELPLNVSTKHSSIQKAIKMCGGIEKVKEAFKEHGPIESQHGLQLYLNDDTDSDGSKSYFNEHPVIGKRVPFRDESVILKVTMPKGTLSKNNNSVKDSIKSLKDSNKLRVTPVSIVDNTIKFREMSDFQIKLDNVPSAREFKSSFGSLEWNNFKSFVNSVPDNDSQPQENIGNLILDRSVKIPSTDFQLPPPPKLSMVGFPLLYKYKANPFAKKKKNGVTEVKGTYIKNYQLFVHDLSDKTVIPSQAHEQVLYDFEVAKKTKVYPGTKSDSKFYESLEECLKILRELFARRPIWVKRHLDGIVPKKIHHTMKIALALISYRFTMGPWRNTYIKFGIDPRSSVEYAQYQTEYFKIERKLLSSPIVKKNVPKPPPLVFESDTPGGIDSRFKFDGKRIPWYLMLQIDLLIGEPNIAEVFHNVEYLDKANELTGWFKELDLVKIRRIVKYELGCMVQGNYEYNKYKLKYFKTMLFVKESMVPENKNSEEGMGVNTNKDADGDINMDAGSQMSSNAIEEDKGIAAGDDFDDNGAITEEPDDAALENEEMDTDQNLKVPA
τA Δtail (τ95Δtail), sequence (Q12415 whole entry, stated change not applied, chain 3 of 3): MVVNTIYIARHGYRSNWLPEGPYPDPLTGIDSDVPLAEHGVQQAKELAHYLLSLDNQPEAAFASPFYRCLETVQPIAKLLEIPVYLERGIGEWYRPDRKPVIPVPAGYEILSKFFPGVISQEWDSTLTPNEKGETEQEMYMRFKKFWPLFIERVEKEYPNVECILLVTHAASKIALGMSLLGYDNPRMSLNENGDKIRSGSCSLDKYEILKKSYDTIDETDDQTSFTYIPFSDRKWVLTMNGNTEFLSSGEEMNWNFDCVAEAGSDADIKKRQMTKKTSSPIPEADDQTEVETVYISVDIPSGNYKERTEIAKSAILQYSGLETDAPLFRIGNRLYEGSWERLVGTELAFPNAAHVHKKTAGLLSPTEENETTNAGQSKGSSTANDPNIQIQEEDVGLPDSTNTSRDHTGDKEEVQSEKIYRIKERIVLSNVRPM
τA Δplug (τ95Δplug), sequence (P33339 whole entry, stated change not applied, chain 1 of 3): as the sequence (P33339 whole entry, stated change not applied, chain 1 of 3) above
τA Δplug (τ95Δplug), sequence (P32367 1-521, stated change not applied, chain 2 of 3): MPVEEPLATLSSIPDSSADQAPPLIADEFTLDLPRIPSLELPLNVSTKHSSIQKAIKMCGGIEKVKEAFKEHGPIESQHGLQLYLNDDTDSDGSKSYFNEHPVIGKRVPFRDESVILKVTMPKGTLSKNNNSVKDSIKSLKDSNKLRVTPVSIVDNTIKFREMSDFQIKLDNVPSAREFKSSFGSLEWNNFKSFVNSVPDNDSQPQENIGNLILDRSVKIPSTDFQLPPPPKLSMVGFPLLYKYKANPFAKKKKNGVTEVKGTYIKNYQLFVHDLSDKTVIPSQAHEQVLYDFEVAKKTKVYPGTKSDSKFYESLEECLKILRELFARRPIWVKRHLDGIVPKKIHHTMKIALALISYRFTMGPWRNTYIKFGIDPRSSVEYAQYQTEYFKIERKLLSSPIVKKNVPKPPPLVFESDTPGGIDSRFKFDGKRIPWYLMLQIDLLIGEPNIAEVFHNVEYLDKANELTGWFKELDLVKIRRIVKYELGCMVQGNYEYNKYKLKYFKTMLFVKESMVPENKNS
τA Δplug (τ95Δplug), sequence (Q12415 whole entry, stated change not applied, chain 3 of 3): as the sequence (Q12415 whole entry, stated change not applied, chain 3 of 3) above
T1 sequence (P33339 whole entry, chain 1 of 3): as the sequence (P33339 whole entry, stated change not applied, chain 1 of 3) above
T1 sequence (P32367 whole entry, chain 2 of 3): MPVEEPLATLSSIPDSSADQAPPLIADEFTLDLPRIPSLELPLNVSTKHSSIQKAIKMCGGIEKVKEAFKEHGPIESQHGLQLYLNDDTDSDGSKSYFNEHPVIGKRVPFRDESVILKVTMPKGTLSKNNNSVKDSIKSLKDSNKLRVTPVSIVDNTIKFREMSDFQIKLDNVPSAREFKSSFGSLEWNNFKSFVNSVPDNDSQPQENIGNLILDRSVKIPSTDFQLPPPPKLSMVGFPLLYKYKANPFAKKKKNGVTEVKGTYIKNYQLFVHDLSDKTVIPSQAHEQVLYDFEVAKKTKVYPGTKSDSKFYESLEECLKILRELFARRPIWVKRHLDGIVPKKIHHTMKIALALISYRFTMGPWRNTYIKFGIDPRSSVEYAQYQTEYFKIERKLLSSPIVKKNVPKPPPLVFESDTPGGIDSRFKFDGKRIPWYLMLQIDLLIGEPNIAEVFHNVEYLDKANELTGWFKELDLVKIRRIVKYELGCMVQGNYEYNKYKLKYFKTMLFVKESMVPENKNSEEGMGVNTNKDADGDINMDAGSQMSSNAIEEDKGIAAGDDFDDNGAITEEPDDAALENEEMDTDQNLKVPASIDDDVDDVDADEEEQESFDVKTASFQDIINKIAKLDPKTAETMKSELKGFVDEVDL
T1 sequence (Q12415 whole entry, chain 3 of 3): as the sequence (Q12415 whole entry, stated change not applied, chain 3 of 3) above

B1: Brf1–TBP construct lacking the first 70 amino acids (Zn-ribbon and linker) (other)
chain: SALESREATLNNARRKLRAVSYALHIPEYITDAAFQWYKLALANNFVQGRRSQNVIASCLYVACRKEKTHHMLIDFSSRLQVSVYSIGATFLKMVKKLHITELPLADPSLFIQHFAEKLDLADKKIKVVKDAVKLAQRMSKDWMFEGRRPAGIAGACILLACRMNNLRRTHTEIVAVSHVAEETLQQRLNEFKNTKAAKLSVQKFRENDVEDGEARPPSFVKNRKKERKIKDSLDKEEMFQTSEEALNKNPILTQVLGEQELSSKEVLFYLKQFSERRARVVERIKATNGIDGENIYHEGSENETRKRKLSESGIVPTLQNIVATVTLGCRLDLKTVALHARNAEYNPKRFAAVIMRIREPKTTALIFASGKMVVTGAKSEDDSKLASRKYARIIQKIGFAAKFTDFKIQNIVGSCDVKFPIRLEGLAFSHGTFSSYEPELFPGLIYRMVKPKIVLLIFVSGKIVLTGAKQREEIYQAFEAIYPVLSEFRKMPRNLHLLPTTDTYLSKVSDDPDNLEDVDDEELNAHLLNEEASKLKERIWIGLNADFLLEQESKRLKQEADIATGNTSVKKKRTRRRNNTRSDEPTKTVDAAAAIGLMSDLQDKSGLHAALKAAEESGDFTTADSVKNMLQKASFSKKINYDAIDGLFR
The term stoichiometry N denotes a count of units in the complex or per binding partner. Take B1: in data set [1], the “stoichiometry N” value turned out to be 1.

B2: His_Abox (dsDNA)
DNA 1: CATCTTAGTATAGTGGTTAGT
DNA 2: ACTAACCACTATACTAAGATG
With B2, the binding result with τA Δplug (τ95Δplug) and with τA Δtail (τ95Δtail) was “binds” throughout.

B3: His_Abox_Bbox (dsDNA)
DNA 1: CATCTTAGTATAGTGGTTAGTACACATCGTTGTGGCCGATGAAACCCTGGTTCGATTCTAGG
DNA 2: CCTAGAATCGAACCAGGGTTTCATCGGCCACAACGATGTGTACTAACCACTATACTAAGATG
In the case of B3, the binding result in data set [2] was “binds”.
